Changes are numbered by the printed parent chain.

The labels stand for the following.
T1: mouse PD-1 (mouse, UniProt Q02242 25-169, limits assumed)
T1 sequence (looked up): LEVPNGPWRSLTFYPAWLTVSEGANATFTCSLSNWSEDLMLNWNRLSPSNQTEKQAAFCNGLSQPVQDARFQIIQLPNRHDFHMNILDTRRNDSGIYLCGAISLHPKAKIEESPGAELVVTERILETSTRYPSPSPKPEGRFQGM

T2: human ICOS (human, UniProt Q9Y6W8 21-140, limits assumed)
T2 sequence (looked up): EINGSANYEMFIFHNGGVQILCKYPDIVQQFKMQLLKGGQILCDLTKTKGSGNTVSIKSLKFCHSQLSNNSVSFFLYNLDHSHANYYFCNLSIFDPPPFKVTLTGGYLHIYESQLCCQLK

T3: human CTLA4 (human, UniProt P16410 36-161, limits assumed)
T3 sequence (looked up): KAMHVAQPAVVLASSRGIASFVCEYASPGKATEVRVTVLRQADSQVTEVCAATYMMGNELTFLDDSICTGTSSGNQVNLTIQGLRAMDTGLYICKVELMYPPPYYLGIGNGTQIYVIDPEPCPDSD

B1: 4C10 murine anti-PD-1 antibody (antibody, V domains shown)
VH: QVQLKQSGPGLVQPSQNLSVTCTVSGFSLTTYGVHWVRQSPGKGLEWLGVIWSGGSTDYNAAFISRLTISKDNARSQVFFKMNSLQVNDTAMYYCAREKSVYGNYVGAMDYWGQGTSVTVSS
VL: SIVMTQTPKFLLVSAGDRVTITCKASQSVSDDVAWYQQKPGQSPKLLIYYAFNRYTGVPDRFTGSGYGTDFTFTISTVQSEDLAVYFCQQDYRSPWTFGGGTKLEIKR
notes: Purified hybridoma antibody; also called 4C10-mIgG1
B2: 13F1 murine anti-PD-1 antibody (antibody, V domains shown)
VH: DVQLQESGPGLVKPSQSLSLTCTVTGYSITSDYAWNWIRQFPGNQLEWMAYISYSGYTSYNPSLKSRISITRDTSKNQFFLQLNSVTTEDTATYYCARSLDYDYGTMDYWGQGTSVTVSS
VL: QIVLSQSPAILSASPGEKVTMTCRANSSVSSMHWYQQKPGSSPEPWIYAISNLAFGVPTRFSGSGSGTSYSLTISRVEAEDAATYFCQQWSSRPPTFGGGTKLEIKR
notes: Purified hybridoma antibody; also called 13F1-mIgG1
B3: 6E1 murine anti-PD-1 antibody (antibody, V domains shown)
VH: EVKLVESGGGLVKPGGSLKLSCAASGFTFSSYGMSWVRQTPEKRLEWVATISGGGRDTYYLDSVKGRFTISRDNAKNNLYLQMSSLRSEDTALYYCVRQYYDDWFAYWGQGTLVSNSA
VL: DIVLTQTPATLSVTPGDSVSLSCRASQSLSNNLHWYQQKSHESPRLLIKYASQSISGIPSRFSGSGSGTDFTLSINSVETEDFGMYFCQQSNSWPLTFGAGTKLEMKR
notes: Purified hybridoma antibody; also called 6E1-mIgG1
B4: 7D3 murine anti-PD-1 antibody (antibody, V domains shown)
VH: B3 VH with A23G, T58I, L61P, F68L, S115T, N116V
VL: B3 VL with T7S, L29I, N32D, A51V, N92D, M106L
notes: Purified hybridoma antibody; also called 7D3-mIgG1

T6 sequence (Q15116 25-170): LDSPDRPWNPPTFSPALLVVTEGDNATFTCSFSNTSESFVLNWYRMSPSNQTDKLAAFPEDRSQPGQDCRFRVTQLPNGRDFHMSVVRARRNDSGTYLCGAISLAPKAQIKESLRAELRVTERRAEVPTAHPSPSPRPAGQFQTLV

The target in the first assay is T1, mouse PD-1. Nature of the assay: assays not detailed.
Regarding B1, the binding result was “no binding”.
Take B2: the binding result was “no binding”.
With B3, the binding result is recorded as “no binding”.
In the case of B4, the binding result is “no binding”.

Another assay deals with T4, human PD-1 extracellular domain fused with human Fc tag (hPD-1-hFc) (human).
T4 construct: also called human PD-1-hFc
T4 sequence (chain, as listed by the source limits assumed): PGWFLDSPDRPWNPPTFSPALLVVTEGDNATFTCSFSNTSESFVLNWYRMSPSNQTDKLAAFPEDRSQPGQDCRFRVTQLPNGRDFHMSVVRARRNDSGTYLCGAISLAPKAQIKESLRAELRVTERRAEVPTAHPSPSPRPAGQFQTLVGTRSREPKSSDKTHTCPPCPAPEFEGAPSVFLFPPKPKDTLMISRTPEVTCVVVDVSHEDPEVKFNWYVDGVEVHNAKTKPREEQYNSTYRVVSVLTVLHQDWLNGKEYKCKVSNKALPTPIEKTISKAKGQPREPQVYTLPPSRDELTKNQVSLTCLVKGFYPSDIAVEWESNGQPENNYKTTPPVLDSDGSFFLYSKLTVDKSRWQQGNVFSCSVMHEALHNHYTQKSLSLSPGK
The assay is described as follows: ELISA on coated PD1-hFc. How it is done: (§1) ELISA binding analysis was conducted based on human PD-1-hFc Protein. 96-well plates (Costar, Cat No:9018) were coated with 100 μL of 2 μg/ml PD1-hFc (CrownBio) in coating buffer (PBS, Hyclone, Cat No:SH30256.01B) overnight at 4° C. The wells were aspirated and non-specific binding sites were blocked by adding 200 μL of blocking buffer with 1% (w/v) of bovine serum albumin (BSA, Roche, Cat No: 738328) and incubating for 1 hour at 37° C. After the plates are washed three times with wash buffer (PBS with 0.05%(v/v) Tween20 (Sigma, Cat No:P1379), 100 μL/well of a suitable dilutions of hybridoma supernatant in blocking buffer were added and incubated at room temperature for 1 hour. The plates were washed and incubated with 100 μL/well of Goat anti-Mouse IgG (H+L) (Thermo, Cat No: 31432) in blocking buffer for 60 min. After the plates were washed, 100 μL/well of substrate solution (TMB(eBioscience, Cat No:00-4201-56) was added and the plates were incubated for 2min at room temperature. 100 μL/well of stop solution (2N H2SO4) was added to stop the reaction. The colorimetric signals were developed and read at 450 nm using a Auto Plate SpectraMax Plus (Supplier: Molecular Devices; Model: MNR0643; Software: SoftMax Pro v5.4).
(§2) The purified hybridoma antibodies were characterized further based on ELISA and FACS analyses.
In general terms: ELISA stands for enzyme-linked immunosorbent assay.
In general, EC50 refers to the concentration needed to bring the measured effect to its halfway point. Turning to B1, the EC50 was 0.0132 µg/mL.
Molecule B2 gave an EC50 of 0.0173 µg/mL. The EC50 values of the last two molecules are within 1.5-fold of each other.
Turning to B3, the response was half-maximal at 0.0157 µg/mL (EC50).
The same measure, in the same setting: to B4 belongs 0.0244 µg/mL.

A further assay deals with T4, human PD-1 extracellular domain fused …. The assay is described as follows: ELISA binding (summary table). As for the experimental part:
as §1, §2
Turning to B1, the EC50 was 0.0132 µg/mL.
For the molecule B2, the response was half-maximal at 0.0173 µg/mL (EC50).
Still for that read-out and setting: the value for B3 was 0.0157 µg/mL; that for B4 was 0.0244 µg/mL.

For a further assay, the target named is T5, human PD-1 (construct not stated) (human, UniProt Q15116 25-167, limits assumed).
T5 construct: also called PD-1 analyte
T5 sequence (Q15116 25-167 limits assumed): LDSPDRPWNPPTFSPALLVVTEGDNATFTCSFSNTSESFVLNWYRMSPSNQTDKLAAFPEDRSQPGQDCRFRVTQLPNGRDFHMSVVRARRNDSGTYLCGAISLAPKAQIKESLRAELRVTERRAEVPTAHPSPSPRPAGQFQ
Nature of the assay: Biacore (summary table; unit from Table 7). As for the experimental part: (§3) To further characterize the binding characteristics of the antibodies, 10 hybridoma antibodies were profiled using Biacore (Biacore 3000, GE) to elucidate binding kinetics and calculate equilibrium binding constants. This assay was performed by capture method, using the mouse antibody capture kit (BR-1008-38, GE). After diluting anti-mouse Fc mab to 25 μg/ml in pH 5.0 immobilization buffer, immobilization was conducted with the parameters shown in Table 6 at a flow rate of 5 μl/min. The kinetic runs were done by 1) injecting ligand for typical 0.5-1 min at flow rate of 10 μl/min.; 2) injecting analytes of choice for typical 3 min followed by dissociation in running buffer (1× PBS-P20) for typical 5-10 min at flow rate of 30 μl/min.; and 3) injecting regeneration solution 10 mM Glycine pH1.7 for typical 1-2 min at flow rate of 10 μl/min.
(In SPR one partner is held on a chip, and binding of the other changes the refractive index at the surface.)
Usually Kd stands for the free concentration of one partner at which half of the binding sites on the other are occupied at equilibrium, for simple one-to-one binding. Regarding B1, the Kd stood at 0.0332 nM.
Turning to B2, the dissociation constant (Kd) was 0.0278 nM. The Kd values of the last two molecules are within 1.5-fold of each other.
On the same count and under the same terms, to B3 belongs 0.0255 nM.
Turning to B4, the Kd was found to be 0.0249 nM. This Kd and that of the molecule before are within 1.5-fold of each other.

The next assay concerns the target T6, human PD-1 extracellular domain fused with mouse Fc (PD-1-mFc) (human, UniProt Q15116 25-170).
T6 construct: extracellular domain; not used because of the label; also called hPD-1-mFc; human PD-1-mouse Fc fusion protein
Nature of the assay: blockage ELISA, competitor PDL-1-mFc-biotin (summary table; IC50 in ng/ml in Table 2). How it is done:
(§4) PD-1-mFc antigen (CrownBio) was suspended in PBS (Hyclone,Cat No:SH30256.01B) buffer (2 ug/ml, 100 ul/ well) and coated on the 96 well plate (costar, Cat No.:9018) 4° C. overnight. Plates were washed 3 times using washing buffer: PBS+0.05% Tween 20(Sigma, Cat No.:P1379). 200 ul of blocking buffer (PBS+1%BSA(Roche, Cat No.:738328)), was added to each well, incubated at 37° C. for 1 hour, and washed 3 times. Various concentrations (suitable dilutions of hybridoma supernatant in PBS) of the anti-PD-1 Abs were added to the wells (100 μl/well) and incubated at 37° C. for 1 hour. […] Secondary antibody (Avidin HRP eBioscience cat No.:E07418-1632, 1:500, 100 ul/well) was added, incubated at 37 ° C. for 0.5 hour, and washed 3 times. TMB (Sigma, Cat No.: T0440, 100 ul/well) was added, and incubated for 3 min at RT. To stop the reaction, 2N H2SO4 (100 ul/well), was added. The colorimetric signals were developed and read at 450 nm using a Auto Plate SpectraMax Plus (Supplier: Molecular Devices; Model: MNR0643; Software: SoftMax Pro v5.4).
By IC50 is commonly meant the concentration at which inhibition is half-maximal. Take B1: the IC50 amounted to 1.46 µg/mL.
The molecule B2 displayed an IC50 of 0.701 µg/mL.
On the same count and under the same terms, the value for B3 was 0.961 µg/mL; that for B4 was 0.982 µg/mL.

A further assay deals with T7, human PD-1 on cells (293T cells transfected with human PD-1) (human, UniProt Q15116 25-288).
T7 construct: whole, on cells; Also used as the target for the functional rows, where PD-1 stands on human T cells
T7 sequence (Q15116 25-288): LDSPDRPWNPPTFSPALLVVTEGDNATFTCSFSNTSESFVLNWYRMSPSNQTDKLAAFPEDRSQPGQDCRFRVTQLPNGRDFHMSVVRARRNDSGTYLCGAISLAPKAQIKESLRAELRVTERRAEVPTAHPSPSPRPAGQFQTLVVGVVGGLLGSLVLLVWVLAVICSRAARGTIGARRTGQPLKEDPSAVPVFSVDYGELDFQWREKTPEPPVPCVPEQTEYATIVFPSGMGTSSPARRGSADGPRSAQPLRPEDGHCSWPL
Nature of the assay: FACS on hPD-1-293T cells. As for the experimental part:
The cells were incubated with the indicated antibody (20 ug/ml with the dilution of ⅕) at 4° C. for 1 h. Cells were washed three times with FACS buffer. A secondary antibody (PE Goat anti-mouse: 1:200; PE mouse anti-human: 1:10) was added to the cells at 100 ul/well, and incubated at 4° C. for 40min. Cells were washed three times with FACS buffer and analyzed by FACS Array.
as §2
On to B1, for which the concentration for a half-maximal effect (EC50) turned out to be 0.109 µg/mL.
Regarding B2, a half-maximal effect (EC50) was put at 0.0308 µg/mL. Compared with the last molecule, the EC50 is about 3.5-fold lower.
Turning to B3, the EC50 was 0.0491 µg/mL.
Molecule B4 came in with a concentration for a half-maximal effect (EC50) of 0.0527 µg/mL. The EC50 values of the last two molecules are within 1.5-fold of each other.

In a further assay the target is T7, human PD-1 on cells (293T cells …). Nature of the assay: FACS blockage on hPD-1-293T cells, competitor biotin PD-L1. How it is done: (§5) Various concentrations of the testing hybridoma antibodies were added to the cell suspension and incubated at 4° C. for 60 minutes in 96 well plates. […] Plates were washed 3 times, and mouse anti-biotin PE antibody (Biolgend, cat# 409004) was added. Flow cytometric analyses were performed using a FACS Array.
as §2
Take B1: the 50% inhibitory concentration (IC50) worked out at 0.0833 µg/mL.
Same read-out and setting: to B2 belongs 0.0199 µg/mL; to B3, 0.0268 µg/mL; to B4, 0.038 µg/mL.

A further assay has as its target T5, human PD-1 (construct not stated). The assay is described as follows: Biacore, antibody captured, PD-1 analyte. How it is done:
as §3
Broadly, the koff is the first-order rate constant of dissociation. A high value points to fast dissociation. Usually kon stands for the rate constant with which the complex forms. A high value points to faster complex formation. For the molecule B1, the Ka stood at 3.01e+10 M⁻¹, the Kd stood at 0.0332 nM, the koff is 2.63e-05 s⁻¹ and the kon worked out at 791000 M⁻¹ s⁻¹.
Turning to B2, the Ka came to 3.6e+10 M⁻¹, binding was put at a Kd of 0.0278 nM, the koff stood at 3.92e-05 s⁻¹ and the kon was 1.41e+06 M⁻¹ s⁻¹.
For B3, in that order: 3.92e+10 M⁻¹, 0.0255 nM, 2.83e-05 s⁻¹ and 1.11e+06 M⁻¹ s⁻¹.
In turn, B4 gave a Ka of 4.02e+10 M⁻¹, a Kd of 0.0249 nM, a dissociation rate constant (koff) of 2.83e-05 s⁻¹ and a kon of 1.14e+06 M⁻¹ s⁻¹.

A further assay has as its target T7, human PD-1 on cells (293T cells …). The assay is described as follows: FACS blockage on hPD-1-293T cells, competitor biotin PD-L2. As for the experimental part: as §5, §2
B1: the half-inhibitory concentration (IC50) is 0.251 µg/mL.
In the case of B2, the IC50 was determined as 0.0529 µg/mL.
For the molecule B3, the IC50 was found to be 0.114 µg/mL.
Consider B4, for which the concentration for half-maximal inhibition (IC50) came to 0.141 µg/mL.

For a further assay, the target named is T6, human PD-1 extracellular domain fused …. Nature of the assay: blockage ELISA, coated PD-1-mFc, competitor PDL-1-mFc-biotin. As for the experimental part: as §4, §2
The molecule B1 gave an IC50 of 1.46 µg/mL.
On to B2, for which the concentration for half-maximal inhibition (IC50) was 0.701 µg/mL.
Turning to B3, the IC50 amounted to 0.961 µg/mL.
As for B4, the half-inhibitory concentration (IC50) was determined as 0.982 µg/mL.

A further assay deals with human CD28 (human, UniProt P10747 19-152, limits assumed). Nature of the assay: Interaction with CTLA4, ICOS CD28; assay not detailed.
Chain of human CD28 (P10747 19-152 limits assumed): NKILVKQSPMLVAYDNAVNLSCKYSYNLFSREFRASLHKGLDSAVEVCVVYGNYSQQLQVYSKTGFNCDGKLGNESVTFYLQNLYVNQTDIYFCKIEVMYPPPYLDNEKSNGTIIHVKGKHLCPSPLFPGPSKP
As for B1, the binding result is “no binding”.
On to B2, for which the binding result is “no binding”.
Same read-out and setting: to B3 belongs “no binding”.
With B4, the binding result is “no binding”.

The target of a further assay is T2, human ICOS. Described as above.
Regarding B1, the binding result is recorded as “no binding”.
On to B2, for which the binding result is recorded as “no binding”.
As for B3, the binding result is reported as “no binding”.
On the same count and under the same terms, the value for B4 was “no binding”.

Another assay deals with T3, human CTLA4. The assay is described as above.
In the case of B1, the binding result is “no binding”.
On the same count and under the same terms, the value for B2 was “no binding”.
Take B3: the binding result is recorded as “no binding”.
For B4, the binding result is recorded as “no binding”.

The values above are taken from patent US20170267762A1 (APOLLOMICS, published 2017).
